Laboratory results from US20100222408A1 (Johns Hopkins, published 2010).

Experiments:
[1] = molecular target: T1, p97/valosin-containing protein (human, UniProt P55072 2-806); experiment: co-immunoprecipitation from bronchial brushings of ΔF508 CF subjects (IP gp78, immunoblot VCP)
T1 construct: Endogenous protein detected by immunoblot in immunoprecipitates; also called VCP; VCP/p97
Method: (§1) Cells were lysed directly on plates using M-PER (Pierce Biotech. Inc., Rockford, Ill.) protein lysis buffer containing protease inhibitor cocktail (Roche) after three washes with ice cold PBS. CF bronchial brushings were transferred to lysis buffer. For immunoprecipitation, 500 μg/ml (cell culture)/50 μg/ml (bronchial brushings) total protein extracts were incubated with 50 μl of protein A/G agarose beads (Santa Cruz Biotechnology Inc., Santa Cruz, Calif.) for 3 hours at 4° C. After preclearing, 5 μg of respective primary antibody or pre-immune sera (negative control) was added to each tube. After 1 hour, protein A/G agarose beads (50 μL) were added to each tube and tubes were incubated overnight at 4° C. Beads were washed once with lysis buffer (20 mM Tris-HC1 [pH 7.6], 150 mM NaCl, 0.5% Triton X-100 and 10 μM phenylmethylsulfonyl fluoride [PMSF]) followed with two washes with phosphate buffer saline (PBS). The beads were suspended in Laemmli's sample buffer (30 μL) containing β-mercaptoethanol, vortexed for 1 minute, resolved by 4-10% SDS-PAGE and transferred to a 0.4-μm pore size nitrocellulose membrane.

[2] = molecular target: Hsc70 (human, UniProt P11142 2-646); experiment: co-immunoprecipitation from bronchial brushings of ΔF508 CF subjects (IP gp78, immunoblot Hsc70)
Method: as §1

Hsc70, sequence (P11142 2-646 limits assumed): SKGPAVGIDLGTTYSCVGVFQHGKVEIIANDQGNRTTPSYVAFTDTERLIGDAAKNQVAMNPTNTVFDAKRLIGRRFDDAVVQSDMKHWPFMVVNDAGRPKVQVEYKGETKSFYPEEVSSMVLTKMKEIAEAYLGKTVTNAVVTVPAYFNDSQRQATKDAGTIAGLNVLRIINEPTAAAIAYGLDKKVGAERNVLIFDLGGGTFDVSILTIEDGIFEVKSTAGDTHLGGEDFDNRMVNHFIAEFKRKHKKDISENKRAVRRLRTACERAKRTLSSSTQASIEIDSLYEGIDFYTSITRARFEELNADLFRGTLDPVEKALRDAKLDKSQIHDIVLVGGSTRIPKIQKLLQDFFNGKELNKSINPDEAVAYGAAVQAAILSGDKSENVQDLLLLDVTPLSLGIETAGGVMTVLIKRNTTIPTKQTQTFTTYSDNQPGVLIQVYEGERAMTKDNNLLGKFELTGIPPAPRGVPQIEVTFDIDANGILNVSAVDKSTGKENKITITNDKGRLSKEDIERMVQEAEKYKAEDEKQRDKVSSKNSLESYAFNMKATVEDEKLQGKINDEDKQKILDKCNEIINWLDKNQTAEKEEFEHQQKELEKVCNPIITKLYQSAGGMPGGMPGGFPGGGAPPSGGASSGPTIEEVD
T1 sequence (P55072 2-806 limits assumed): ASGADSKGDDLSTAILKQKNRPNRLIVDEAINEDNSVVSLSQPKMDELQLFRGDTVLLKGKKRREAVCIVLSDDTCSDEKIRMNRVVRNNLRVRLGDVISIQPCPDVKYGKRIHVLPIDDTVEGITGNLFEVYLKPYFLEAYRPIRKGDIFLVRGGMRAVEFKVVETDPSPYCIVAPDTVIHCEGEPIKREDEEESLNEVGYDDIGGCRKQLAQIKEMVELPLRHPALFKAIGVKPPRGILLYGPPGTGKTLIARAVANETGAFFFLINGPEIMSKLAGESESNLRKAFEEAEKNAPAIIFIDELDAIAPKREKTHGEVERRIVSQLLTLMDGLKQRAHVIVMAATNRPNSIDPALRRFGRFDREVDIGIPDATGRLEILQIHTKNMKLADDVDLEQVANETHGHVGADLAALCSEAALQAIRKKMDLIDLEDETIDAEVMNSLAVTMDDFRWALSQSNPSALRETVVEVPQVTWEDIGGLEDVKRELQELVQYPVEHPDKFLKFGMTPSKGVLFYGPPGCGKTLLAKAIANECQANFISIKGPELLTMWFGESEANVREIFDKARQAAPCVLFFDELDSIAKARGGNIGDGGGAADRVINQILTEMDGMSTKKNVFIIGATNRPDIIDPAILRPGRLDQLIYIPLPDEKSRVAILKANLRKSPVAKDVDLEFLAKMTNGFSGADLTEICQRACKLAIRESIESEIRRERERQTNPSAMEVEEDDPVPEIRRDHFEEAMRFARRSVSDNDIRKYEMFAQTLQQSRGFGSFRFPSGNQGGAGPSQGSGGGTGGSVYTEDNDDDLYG

B1: gp78 (enzyme, human, UniProt Q9UKV5 1-643, looked up)
chain: MPLLFLERFPWPSLRTYTGLSGLALLGTIISAYRALSQPEAGPGEPDQLTASLQPEPPAPARPSAGGPRARDVAQYLLSDSLFVWVLVNTACCVLMLVAKLIQCIVFGPLRVSERQHLKDKFWNFIFYKFIFIFGVLNVQTVEEVVMWCLWFAGLVFLHLMVQLCKDRFEYLSFSPTTPMSSHGRVLSLLVAMLLSCCGLAAVCSITGYTHGMHTLAFMAAESLLVTVRTAHVILRYVIHLWDLNHEGTWEGKGTYVYYTDFVMELTLLSLDLMHHIHMLLFGNIWLSMASLVIFMQLRYLFHEVQRRIRRHKNYLRVVGNMEARFAVATPEELAVNNDDCAICWDSMQAARKLPCGHLFHNSCLRSWLEQDTSCPTCRMSLNIADNNRVREEHQGENLDENLVPVAAAEGRPRLNQHNHFFHFDGSRIASWLPSFSVEVMHTTNILGITQASNSQLNAMAHQIQEMFPQVPYHLVLQDLQLTRSVEITTDNILEGRIQVPFPTQRSDSIRPALNSPVERPSSDQEEGETSAQTERVPLDLSPRLEETLDFGEVEVEPSEVEDFEARGSRFSKSADERQRMLVQRKDELLQQARKRFLNKSSEDDAASESFLPSEGASSDPVTLRRRMLAAAAERRLQKQQTS
notes: also called AMFR; AMFR/gp78
Question: Does B1 bind [1]?
Answer: Result: no binding

Question: Does B1 bind [2]?
Answer: Result: no binding
